According to the supplement of paper PMC10567573:

B1: ZNF75A (parent)
chain: RTHTGEQPYTCSICRRNFSRRSSL

Variants of: B1
Assay: protein stability index of a GFP-peptide fusion (GPS, HEK-293T) (PSI 1-6); higher = more stable
Conditions: c terminus: a fixed tail appended
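Also: lentivirally expressed fusions sorted by FACS into six bins by GFP to DsRed ratio, PSI derived from sequencing read proportions per bin multiplied by bin number.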

Row | Variant | protein stability index
1 | RTHTGEEPYTCSICRRNFSRRSSL [Q7E] | 3.43
2 | RTHTGEFPYTCSICRRNFSRRSSL [Q7F] | 2.8
3 | RTHTGEGPYTCSICRRNFSRRSSL [Q7G] | 2.45
4 | RTHTGEHPYTCSICRRNFSRRSSL [Q7H] | 2.63
5 | RTHTGEIPYTCSICRRNFSRRSSL [Q7I] | 2.63
6 | RTHTGEKPYTCSICRRNFSRRSSL [Q7K] | 2.59
7 | RTHTGELPYTCSICRRNFSRRSSL [Q7L] | 2.7
8 | RTHTGEMPYTCSICRRNFSRRSSL [Q7M] | 2.68
9 | RTHTGENPYTCSICRRNFSRRSSL [Q7N] | 2.6
10 | RTHTGEPPYTCSICRRNFSRRSSL [Q7P] | 2.57
11 | RTHTGERPYTCSICRRNFSRRSSL [Q7R] | 2.96
12 | RTHTGESPYTCSICRRNFSRRSSL [Q7S] | 2.24
13 | RTHTGETPYTCSICRRNFSRRSSL [Q7T] | 2.49
14 | RTHTGEVPYTCSICRRNFSRRSSL [Q7V] | 2.41
15 | RTHTGEWPYTCSICRRNFSRRSSL [Q7W] | 2.83
16 | RTHTGEYPYTCSICRRNFSRRSSL [Q7Y] | 2.36
17 | RTHTGEQAYTCSICRRNFSRRSSL [P8A] | 2.97
18 | RTHTGEQCYTCSICRRNFSRRSSL [P8C] | 2.52
19 | RTHTGEQDYTCSICRRNFSRRSSL [P8D] | 3.4
20 | RTHTGEQEYTCSICRRNFSRRSSL [P8E] | 3.95
21 | RTHTGEQFYTCSICRRNFSRRSSL [P8F] | 3.09
22 | RTHTGEQGYTCSICRRNFSRRSSL [P8G] | 3.4
23 | RTHTGEQHYTCSICRRNFSRRSSL [P8H] | 3.19
24 | RTHTGEQIYTCSICRRNFSRRSSL [P8I] | 2.99

Row | Variant | protein stability index
25 | RTHTGEQKYTCSICRRNFSRRSSL [P8K] | 3.13
26 | RTHTGEQLYTCSICRRNFSRRSSL [P8L] | 2.87
27 | RTHTGEQMYTCSICRRNFSRRSSL [P8M] | 3.06
28 | RTHTGEQNYTCSICRRNFSRRSSL [P8N] | 3.01
29 | RTHTGEQQYTCSICRRNFSRRSSL [P8Q] | 2.85
30 | RTHTGEQRYTCSICRRNFSRRSSL [P8R] | 2.35
31 | RTHTGEQSYTCSICRRNFSRRSSL [P8S] | 2.81
32 | RTHTGEQTYTCSICRRNFSRRSSL [P8T] | 3.76
33 | RTHTGEQVYTCSICRRNFSRRSSL [P8V] | 3.4
34 | RTHTGEQWYTCSICRRNFSRRSSL [P8W] | 3.05
35 | RTHTGEQYYTCSICRRNFSRRSSL [P8Y] | 3.16
36 | RTHTGEQPATCSICRRNFSRRSSL [Y9A] | 2.68
37 | RTHTGEQPCTCSICRRNFSRRSSL [Y9C] | 4.17
38 | RTHTGEQPDTCSICRRNFSRRSSL [Y9D] | 2.92
39 | RTHTGEQPETCSICRRNFSRRSSL [Y9E] | 3.15
40 | RTHTGEQPFTCSICRRNFSRRSSL [Y9F] | 2.64
41 | RTHTGEQPGTCSICRRNFSRRSSL [Y9G] | 3.29
42 | RTHTGEQPHTCSICRRNFSRRSSL [Y9H] | 3.02
43 | RTHTGEQPITCSICRRNFSRRSSL [Y9I] | 2.71
44 | RTHTGEQPKTCSICRRNFSRRSSL [Y9K] | 2.17
45 | RTHTGEQPLTCSICRRNFSRRSSL [Y9L] | 2.39
46 | RTHTGEQPMTCSICRRNFSRRSSL [Y9M] | 2.27
47 | RTHTGEQPNTCSICRRNFSRRSSL [Y9N] | 2.56
48 | RTHTGEQPPTCSICRRNFSRRSSL [Y9P] | 2.69

Row | Variant | protein stability index
49 | RTHTGEQPQTCSICRRNFSRRSSL [Y9Q] | 2.32
50 | RTHTGEQPRTCSICRRNFSRRSSL [Y9R] | 2.46
51 | RTHTGEQPSTCSICRRNFSRRSSL [Y9S] | 2.55
52 | RTHTGEQPTTCSICRRNFSRRSSL [Y9T] | 2.51
53 | RTHTGEQPVTCSICRRNFSRRSSL [Y9V] | 2.58
54 | RTHTGEQPWTCSICRRNFSRRSSL [Y9W] | 3.02
55 | RTHTGEQPYACSICRRNFSRRSSL [T10A] | 2.85
56 | RTHTGEQPYCCSICRRNFSRRSSL [T10C] | 2.63
57 | RTHTGEQPYDCSICRRNFSRRSSL [T10D] | 3.48
58 | RTHTGEQPYECSICRRNFSRRSSL [T10E] | 2.37
59 | RTHTGEQPYFCSICRRNFSRRSSL [T10F] | 2.71
60 | RTHTGEQPYGCSICRRNFSRRSSL [T10G] | 2.18
61 | RTHTGEQPYHCSICRRNFSRRSSL [T10H] | 2.85
62 | RTHTGEQPYICSICRRNFSRRSSL [T10I] | 3.52
63 | RTHTGEQPYKCSICRRNFSRRSSL [T10K] | 2.43
64 | RTHTGEQPYLCSICRRNFSRRSSL [T10L] | 2.88
65 | RTHTGEQPYMCSICRRNFSRRSSL [T10M] | 3.48
66 | RTHTGEQPYNCSICRRNFSRRSSL [T10N] | 2.67
67 | RTHTGEQPYPCSICRRNFSRRSSL [T10P] | 3.09
68 | RTHTGEQPYQCSICRRNFSRRSSL [T10Q] | 2.32
69 | RTHTGEQPYRCSICRRNFSRRSSL [T10R] | 2.57
70 | RTHTGEQPYSCSICRRNFSRRSSL [T10S] | 2.01
71 | RTHTGEQPYVCSICRRNFSRRSSL [T10V] | 3.85
72 | RTHTGEQPYWCSICRRNFSRRSSL [T10W] | 2.63

Row | Variant | protein stability index
73 | RTHTGEQPYYCSICRRNFSRRSSL [T10Y] | 2.5
74 | RTHTGEQPYTASICRRNFSRRSSL [C11A] | 3.92
75 | RTHTGEQPYTDSICRRNFSRRSSL [C11D] | 4.34
76 | RTHTGEQPYTESICRRNFSRRSSL [C11E] | 4.09
77 | RTHTGEQPYTFSICRRNFSRRSSL [C11F] | 3.73
78 | RTHTGEQPYTGSICRRNFSRRSSL [C11G] | 3.37
79 | RTHTGEQPYTHSICRRNFSRRSSL [C11H] | 3.94
80 | RTHTGEQPYTISICRRNFSRRSSL [C11I] | 3.79
81 | RTHTGEQPYTKSICRRNFSRRSSL [C11K] | 3.93
82 | RTHTGEQPYTLSICRRNFSRRSSL [C11L] | 3.61
83 | RTHTGEQPYTMSICRRNFSRRSSL [C11M] | 4.07
84 | RTHTGEQPYTNSICRRNFSRRSSL [C11N] | 4
85 | RTHTGEQPYTPSICRRNFSRRSSL [C11P] | 4.22
86 | RTHTGEQPYTQSICRRNFSRRSSL [C11Q] | 4.39
87 | RTHTGEQPYTRSICRRNFSRRSSL [C11R] | 3.74
88 | RTHTGEQPYTSSICRRNFSRRSSL [C11S] | 3.86
89 | RTHTGEQPYTTSICRRNFSRRSSL [C11T] | 4.58
90 | RTHTGEQPYTVSICRRNFSRRSSL [C11V] | 3.61
91 | RTHTGEQPYTWSICRRNFSRRSSL [C11W] | 3.77
92 | RTHTGEQPYTYSICRRNFSRRSSL [C11Y] | 3.3
93 | RTHTGEQPYTCAICRRNFSRRSSL [S12A] | 2.21
94 | RTHTGEQPYTCCICRRNFSRRSSL [S12C] | 2.4
